The values that follow come from article PMC4558366.

Common to all, as to assay: ITC
(In general: Isothermal titration calorimetry measures the heat released or taken up as one component is titrated into another.)

Experiment [1] addresses T1, UHRF1_(TTD-RING) (residues 138-806) (human), Q96T88.
T1 chain: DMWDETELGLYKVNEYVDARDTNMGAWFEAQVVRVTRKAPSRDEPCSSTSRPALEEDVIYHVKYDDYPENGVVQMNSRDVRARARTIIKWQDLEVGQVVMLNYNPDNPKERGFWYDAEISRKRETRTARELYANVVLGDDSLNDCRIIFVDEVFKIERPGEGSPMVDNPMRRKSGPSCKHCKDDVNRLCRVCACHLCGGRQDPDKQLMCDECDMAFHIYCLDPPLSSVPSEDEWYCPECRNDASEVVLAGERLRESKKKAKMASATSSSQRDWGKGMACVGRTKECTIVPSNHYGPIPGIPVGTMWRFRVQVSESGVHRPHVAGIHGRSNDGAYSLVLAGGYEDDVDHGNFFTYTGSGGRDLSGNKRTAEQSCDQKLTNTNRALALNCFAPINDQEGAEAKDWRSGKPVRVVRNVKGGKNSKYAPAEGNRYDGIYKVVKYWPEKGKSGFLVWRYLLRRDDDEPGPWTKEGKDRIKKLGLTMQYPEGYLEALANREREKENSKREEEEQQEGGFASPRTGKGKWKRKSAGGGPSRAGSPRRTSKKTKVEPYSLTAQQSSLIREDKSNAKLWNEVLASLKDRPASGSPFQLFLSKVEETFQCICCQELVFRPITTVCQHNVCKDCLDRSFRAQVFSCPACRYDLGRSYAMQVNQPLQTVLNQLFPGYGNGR

Experiment [2] concerns the target T2, UHRF1_(647-678) (human), Q96T88.
T2 chain: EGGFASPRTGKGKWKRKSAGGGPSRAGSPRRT

In experiment [3] the target is T3, UHRF1_(SRA-RING) (residues 419-806) (human), Q96T88.
T3 chain: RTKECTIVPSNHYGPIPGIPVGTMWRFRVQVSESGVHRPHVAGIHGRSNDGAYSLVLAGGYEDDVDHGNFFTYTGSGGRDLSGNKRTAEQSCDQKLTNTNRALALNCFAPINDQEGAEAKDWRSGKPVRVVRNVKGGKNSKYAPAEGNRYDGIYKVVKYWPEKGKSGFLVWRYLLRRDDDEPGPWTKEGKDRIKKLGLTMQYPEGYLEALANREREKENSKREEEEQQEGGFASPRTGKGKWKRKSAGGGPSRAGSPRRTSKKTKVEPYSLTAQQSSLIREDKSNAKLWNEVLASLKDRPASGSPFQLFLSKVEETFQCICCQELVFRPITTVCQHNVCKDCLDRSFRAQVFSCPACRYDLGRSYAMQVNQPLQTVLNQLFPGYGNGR

For experiment [4], the target named is T4, UHRF1_(600-687) (human), Q96T88.
T4 chain: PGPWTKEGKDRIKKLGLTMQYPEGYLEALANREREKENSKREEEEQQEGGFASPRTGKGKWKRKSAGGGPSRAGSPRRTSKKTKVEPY

The target of experiment [5] is T5, UHRF1_(647-687) K659E (human), Q96T88.
T5 chain: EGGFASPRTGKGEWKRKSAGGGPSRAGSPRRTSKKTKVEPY

B1: USP7 UBL1-2 (first two UBL domains of USP7) (domain or fragment)
chain: EAHLYMQVQIVAEDQFCGHQGNDMYDEEKVKYTVFKVLKNSSLAEFVQSLSQTMGFPQDQIRLWPMQARSNGTKRPAMLDNEADGNKTMIELSDNENPWTIFLETVDPELAASGATLPKFDKDHDVMLFLKMYDPKTRSLNYCGHIYTPISCKIRDLLPVMCDRAGFIQDTSLILYEEVKPNLTERIQDYDVSLDKALDELMDGDIIVFQKDDPENDNSELPTAKEYFRDLYH
modifications: not checked
The Kd is the free concentration of one partner at which half of the binding sites on the other are occupied at equilibrium, for simple one-to-one binding. A low value points to tighter binding. As for B1, the Kd in experiment [1] came to 27.2 µM; in experiment [2], 1.52 µM; in experiment [3] it was 1.3 µM; in experiment [4] it was 1.42 µM. This molecule also returned a fold reduction of binding affinity against wild type in experiment [5] of 38 fold.
